Data reported in patent US20090042209A1 (NOX TECHNOLOGIES, published 2009).

Biological target: T1, albumin (serum) (human, UniProt P02768 25-609)
T1 construct: Present in the serum sample on the 2-D blot; also called unreactive albumin
Assay: 2-D gel electrophoresis immunoblot of pooled cancer sera, scFv with anti-S alkaline phosphatase detection
Description: FIG. 1 provides the results of analytical 2-D gel electrophoresis of ECTO-NOX enriched serum proteins from a preparation of sera pooled from cancer patients (breast, ovarian, lung and colon) concentrated by nickel agarose precipitation, followed by immunoblots analysis. Separation in the first dimension was by isoelectric focusing and in the second dimension by SDS-PAGE (using ampholytes over the pH range of 3 to 10 and 10% polyacrylamide gel). For interpretative purposes, the gel is divided into quadrants I-IV with unreactive albumin (albumin) at the center. Detection was with recombinant anti-tNOX single chain variable region (scFv) antibody (MAB 12.1 scFv) carrying an S-tag followed by alkaline phosphatase-liked anti S (Novagen cat. # 69598-3 or equivalent product) with Western Blue NBT substrate (Promega, Madison, Wis; Cat. No. S3841 or equivalent product). Reactive proteins appear reddish blue.

T1 sequence (P02768 25-609 limits assumed): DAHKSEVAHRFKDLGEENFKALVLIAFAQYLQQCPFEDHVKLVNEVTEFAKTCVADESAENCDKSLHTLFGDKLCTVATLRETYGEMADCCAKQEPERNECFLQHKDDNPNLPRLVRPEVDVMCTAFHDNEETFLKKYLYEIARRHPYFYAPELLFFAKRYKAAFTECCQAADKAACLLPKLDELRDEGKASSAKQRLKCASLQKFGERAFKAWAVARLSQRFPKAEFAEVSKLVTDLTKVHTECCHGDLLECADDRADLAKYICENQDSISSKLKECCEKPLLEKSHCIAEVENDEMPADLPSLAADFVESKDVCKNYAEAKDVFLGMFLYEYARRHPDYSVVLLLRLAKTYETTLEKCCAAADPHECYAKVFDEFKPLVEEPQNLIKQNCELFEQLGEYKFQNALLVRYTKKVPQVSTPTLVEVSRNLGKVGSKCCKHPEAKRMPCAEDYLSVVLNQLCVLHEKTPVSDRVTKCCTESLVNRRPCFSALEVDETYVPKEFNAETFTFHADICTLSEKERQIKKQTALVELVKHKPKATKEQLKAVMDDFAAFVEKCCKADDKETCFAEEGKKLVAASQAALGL

B1: recombinant anti-tNOX single chain variable region (scFv) antibody (MAB 12.1 scFv) carrying an S-tag (scFv)
scFv: EVKLQESGTEVVKPGASVKLSCKASGYIFTSYDIDWVRQTPEQGLEWIGWIFPGEGSTEYNEKFKGRATLSVDKSSSTAYMELTRLTSEDSAVYFCARGDYYRRYFDLWGQGTTVTVSSGGGGSGGGGSGGGGSENVLTQSPAIMSASPGERVTMTCSASSSIRYIYWYQQKPGSSPRLLIYDTSNVAPGVPFRFSGSGSGTSYSLTINRMEAEDAATYYCQEWSGYPYTFGGGTKLELKAKETAAAKFERQHMDS
notes: Expressed in E. coli from pET11-ScFv(S) and renatured from inclusion bodies; also called ScFv(S); NTI ScFv MAB 12.1
binding result: no binding
